assay: soluble on expression in E. coli; label from the status in PepcDB or PDB records

Sequence | soluble on expression in E. coli
MIEQPSPKVYDELLSIWEEAVRSTHHFLTEADIQFYKPLIRHEYLAAVRLYIIREDSGTIAAFMGLSNDCIEMLFVRPNAHGHGYGSRLVEFAIRKKRIYKVDVNEQNAAALGFYLHMGFETTGRDALDATGKPFPILHLQIPPIRLRKATLEDIDLLRTLFTQSVQNTCSTDYNRLQIQAWTGRGTLQRWHELFQSDLYFLLAEDSRKSQVAGFTSVNSKGYLHSMFVHPDYQRQGIASRLLLKAEEYVRIRQGVSVYSEVSITARPFFEKHGYSIEKEQTVSVGDIEMTNFLMYKRI | not soluble
MSLTPTELNLKAKALLETHFDDIVLSGEISKITLHGSGHWYFDLKDERSSIACAMFKGANLKVGFKPAVGDFLELCGSVSLYPESGRYQFIATSMKKAGFGDLEAQFLALKERLQKEGLFDPRFKKSLPKFPKKVGIITSKTSAALQDMLKLIHQKEYFLAKIYIFDALTQGNNAPFSLIQALKKADDMDLDVLIIARGGGSREDLFCFNDENLAREIFKAKTPIISAIGHEIDYVISDFVADFRAPTPSAAIDTLFYSKLDIEQSLDLMEEKLMQLWNYKIQNYENLLLNLSKFFKFNSLPKIIDEKIKQSHNIEKQLNHLLANQMRYNELKLDKLQNAYLQHENFFNKSKKFICIRKNGKIANLEDLKSDDIVILSSQTSQKEAKILEGHHHHHH | not soluble
MHSENQSKGVHYAKSQRLLEINHAHLQLMESLLDEGKKYNIFKPGIDPLQVNINIAALGGYYLINQHTLGLVYHISMVSPQALEARRKVIKETILSWLLVDPSSTAHE | not soluble
KTSILLLLMIATALPSFGGNGNGNGTDSLQATRYVTRATMYGVGYTNVFDTYLSPQEYKGIEFRISRETMRMTTLGDGNVSVQNFFQANLAYTHNRVDNNNTFAGLVNWNYGLHYQFRITDNFKLLAGGMGDFNGGFVYNLRNTNNPASARAYINLDASGMAIWHTKIKNYPLALRYQVNLPVIGVMFSPHYGQSYYEIFTLGHASGVIRFTSLHNQPALRQMLSVDFPIRYTKMRLSYLCDLQQSKLNGIKTHTYSQVFMVGFVHDLFRIRNKNGTPLPPAVRAY | not soluble
QSDEWRRTTRLLGEILEDTTRPPLERLRRLVLAFVRSECEEAAIRVALSDAAPLYRDADEAREVKAEGARVFQAFLREALPEVAEAERSLAGDLLTTTLGAVGKQFSEQPRSEAEIERYAEALADMLCAYLAALGER | not soluble
MGSDKIHHHHHHMKPLPAQAIWFTAPHTVSIREEIAPPPAYGDVRIAAIASLISHGTERLVYRGEVDPTLALDLPTLQGSFAFPIKYGYAIAGRVIDIGPGVEQFQIGDPVAALHPHQTIFTLPAHLVKRLPDTLDPALGGFYANVETALTICHDAAPRLGETVVVLGQGVVGLLVTQLLQRTGAQVIAVEPDAHRRALATQFGATTLAQADPATIAELTDGRGADIVVEVSGSPAALQQAIELTATEGLVVVASWYGQKPAPLILGGHFHRGRVRLRSSQVGRLAPETLPRWDYARRSATVMNLLPRLCLNELISHRIPFVQAAAAYDLLDQAPPGLVQVMLTYADYAPQT | not soluble
MQNETINLKQHLAAIKEYWQPEIINRHGFQFHLVKLLGDYGWHTHGYSDKVLFAVEGDMAVDFADGGSMTIREGEMAVVPKSVSHRPRSENGCSLVLIELSDPSEAV | soluble
MAHHHHHHMKNIFKYKNRLTFFRKGFSTTNKPKVEIKKTILYDSHKKNNAIFKIQHGFYLPDEYKDITLITSNLHTRTNCSLFDYTYRPILKISGEDKINFIEKYVGSDIKGLWENECRISLLLNDKGGIIDDIMIILREKYLLLYLNIQCKEKVYKYLKDKLLENGKLQVQIEEFTSHSSICIQGSKSSDVLKELIDYNNESVETNLDNCSFMSSTLTKINKIDNCILNRYTCTGEDGFDILIPNKYVNDLYNLILKNELVKPGGLAVQNTLRLESGFCEYGKDINEDITPIESNYKWSLGQRRLKELNFNGAHIIMDQIKNGTKIKRVGILINTNIVPKENTKIYSHENAEQIIGYITSSVFSPVLQKPICMGYVKSEYAHINNLIKVDCLNKLEIAQITKLPFVPLSIYKL | not soluble
MGSDKIHHHHHHENLYFQGMWEIYDAMINGIPEDFLVDELVCGTTHSVIRSGNGVGLGPNRPFETRMPMLTQNLLGLPLRVAAGCVKSWNYVEASIGLAAINAYYNNPQVAREHGVIFSDAKRVEDRMNDPFIMSQNEVKGKKVGVVGHFPHLESLLEPICDLSILEWSPEEGDYPLPASEFILPECDYVYITCASVVDKTLPRLLELSRNARRITLVGPGTPLAPVLFEHGLQELSGFMVKDNARAFRIVAGAEKVKIYSAGQKVTIKK | soluble
MPDSSMKRGATLCLALAIGPGSTLADDSLGHRDNISTGLNQRQKAEMKVPPGFVEGSTLNGFIRNYYFARDNHDTPSRRDQREWAQGLMLSFRSGYTDTPIGIGLDAHAFYGLRLDGGGGSGGAGVLPLDSAGRPADSFSAAGAALKLRGLDSLLKIGDQLLENPVIASGVSRMVPQSYRGVTLKNYHFRALELDAGFVEATRLRNQSGHSHLTSGYGNGTKGGIAADRESPHIAWLGASYSAPGGSQATLYSGRLEDIWNQHYLGLSQPWRLSSQLTLTPWLHYYKTRDQGRSQLGRIDNDLYNAGLTLAGGGQSLSLSLQKVDGDTPFDFIAQNDRTFLYESNAMQYADFNGPGERSWKIQYQASLAFLAAPDWQFGAAYGRGQADLTRVDPDSAGYGYLYNPNGKNAQHWERDLSLRYAFPAGPAKGLSVTLRWATHRPGEGYTAPGNTRGNSSSDEYRVVVDYPIRLL | not soluble
MSLRKTQTYKSLPYNPALRDRAKALRKAGILHEALLWFELKSNKLNGLDFDRQKIIGNYIVDFYCAERSVVIEVDGSSHDSKQIEDRERDAYLNGLGLTVIRVLAKDVLRNLEGVVEFLKDHPALTGTPPEEGNKTALTGTPPEEGNKTALTGTPPEEGNKTALTGTPPEEGNKTALTGTPPEEGNKTTLTEAREEGHHHHHH | soluble
MSLEFALKAVTEHGPFTDIGKFDQDRWQLFHTDEDRSEAHDLADQHPEKVGEMAALWMSEAKKYHVLPLSDLGVMGILKMEFKPPVPPSRQYAYYPGTSTVPEHSAANTHGVSFKVLADVEFTADSQGILFAHGSRFGGHALYVKNGKLIYVYNFLGIPPEQRLVGDAPRSGKHVVGVEFIKERMGEYKESYGPARLYVDERIVAEAPIRTMTGHFAITGEGLCIGYDSGDGVSNDYRPKFAFSGGKINKVVFDVGADLYVDVETHLVAAMARDEGHHHHHH | soluble
MNYLERLVESWPVEQCSAAVVTSDEVTTAGDGNIRYELASVTKLLSTYAVLIAVEEGAFALDTPCGPEGATVRHLLAHASGVGFRSTDACKAPEQRRIYSSYGFELLADVIAHEADMPFAQYLDEAVCQPIGMTHTQLWGSAGHESYSTVNDLVLFAREILQPSLIAQETLVQACTVQFPELHGIVPGYGMYKPCPWGLGFEIKGEKNPHWTAAVMPHTTVGHFGQAGTYLWVDRESQRAMVALTNRSFGDWAKPLWAETNAGVWEHLDQLNL | not soluble
MGSDKIHHHHHHMRAVRLHAKWDPRPEFKLGPKDIEGKLTWLGSKVWRYPEVRVEEVPEPRIEKPTEIIIKVKACGICGSDVHMAQTDEEGYILYPGLTGFPVTLGHEFSGVVVEAGPEAINRRTNKRFEIGEPVCAEEMLWCGHCRPCAEGFPNHCENLNELGFNVDGAFAEYVKVDAKYAWSLRELEGVYEGDRLFLAGSLVEPTSVAYNAVIVRGGGIRPGDNVVILGGGPIGLAAVAILKHAGASKVILSEPSEVRRNLAKELGADHVIDPTKENFVEAVLDYTNGLGAKLFLEATGVPQLVWPQIEEVIWRARGINATVAIVARADAKIPLTGEVFQVRRAQIVGSQGHSGHGTFPRVISLMASGMDMTKIISKTVSMEEIPEYIKRLQTDKSLVKVTMLNE | not soluble
GPSASLLVQNGTLNVGDAIVVGNTYGRIRAMVNDLGQRIKTAGPSTPVEITGINDVPQAGDRFV | soluble
MVPLTEENVESVLDEIRPYLMSDGGNVALHEIDGNVVRVKLQGACGSCPSSTMTMKMGIERRLMEKIPEIVAVEALPDEETGLELNEENIEKVLEEIRPYLIGTADGSLDLVEIEDPIVKIRITGPAAGVMTVRVAVTQKLREKIPSIAAVQLI | soluble
MGSDKIHHHHHHMQCMIDAMRSIVSLISHATVALAGSLAVAGCSLSPQPDHDTAATTPERLEARIHKVHRFDPQAFTQGLELDGDRLLVSTGFYGESGMFSMEVGNAPQQRTPLDPELFGEGITKTGDHIWQLTWRDGIAFKRDATTFQQLGTVSYEGEGWGLCHFDDRVIMSNGSDELIIRDPESFDERSRIRVTNQGNGVSNLNELECVPNDPATGKDTIYANVFLSTDIMRIDATTGAVTGIIDASSIPNNAVADTNNVLNGIAWIPSSDRFYITGKRWPDLYEVTFVSKMSNHGQS | not soluble
MGSDKIHHHHHHMAKGSKGFIVSIMGPVVDVKFPEEELPDIYNALEVVNPQTGQKVVLEVEQLIGDGVVRTVAMDSTDGLTKGLEVVDTGAPITAPVGKEVLGRILNVIGEPVDEAGEIKAKERWPIHRPAPELVEQSTEIEILETGIKVIDLLAPFPKGGKIGFFGGAGVGKTVLVMELIRNIAIEHKGFSVFAGVGERTREGNELWLEMQESGVLGNTVLVFGQMNEPPGARFRVALTALTIAEYFRDVEGRDVLLFIDNIFRFVQAGSEVSALLGRMPSAVGYQPTLATDMGELQERITSTRRGSITSVQAIYVPADDITDPAPATTFAHLDATVVLSRRIAELGLYPAVDPLDSSSKILDPAIVGREHYEVARGVQEVLQRYKDLQDIIAILGVEELSPEDKLVVHRARRIQRFLSQPFHVAERFTGRPGRYVPIEETIRGFKEILDGKLDDVPEQAFLMAGNIDEVKERAKEMRS | not soluble
MGSDKIHHHHHHMSTVIDSNIFNTLVSNTFYSCPLGGAIYDTEGNLIDLNKAMFAHFSLADKHDFIIEHLFNNIVLTDSLKSSLRKGDAIICEEPVTFKVEPIYTDEQGLSGYTLWLTQQGEKETDRENKLLMGQLNESRILMRQALEDGKLAAYSFSFDRFSTCDKRHCNRCFQFYGTTNTLLDKNRFICRALSSVRKPEDSLDFFYLFNKIRDEKLSSHNVTFHLRNQDGTYKMYEISGKSMDIDESGTPHVIIGSIIEKENDELAIADHQKSKDLSLLKSTFLANMTHEIRTPLNAIVGFSDMLGLEDDPEMREQYISMIKENNTALLELINDTLEMSRIESNTINWSYEDVNPLAIMHDVYEYASPRISKNVRLILDDSPNVSLHTDKHKLMLILKKLLSNALRYTEKGEIHFGYQSLYPVSVQFYVSDTGNGIPKDKLGHIFERFVQLNEFQPGTGLGLSICKGLVTAMGGTIWVNSEEGKGSTFSFKLPITPPDTIS | not soluble
MDIKHEMIYREDDVLLVKSEPQLHSPCATGSNGLPAGAGSNLLCASNGLVTTLASGSSLNGLTNNVPSNGLSSSGPFSSIGGGVSASKRQRTDDWLSSPSGNVPPLTPSPGPPSHPYTVISNGYSSPMSSGSYDPYSPNGKIGREDLSPSSLNGYSADSCDSKKKKGPTPRQQEELCLVCGDRASGYHYNALTCEGCKGFFRRSITKNAVYQCKYGNNCEIDMYMRRKCQECRLKKCLSVGMRPECVVPEVQCAVKRKEKKAQKEKDKPNSSTNGSPDVIKVEPELSDSEKTLCNGSKGISPEQEELIHRLVYFQNEYEHPSEEDVKRIINQPMDGEDQCDVRFRHITEITILTVQLIVEFAKRLPGFDKLLREDQIALLKACSSEVMMFRMARRYDVQTDSILFVNNQPYSRDSYNLAGMGETIEDLLHFCRTMYSMRVDNAEYALLTAIVIFSERPALIEGWKVEKIQEIYLEALRAYVDNRRKPKPGTIFAKLLSVLTELRTLGNQNSEMCFSLKLKNKKLPPFLAEIWDVDLKT | soluble
MTPPPADDTSGKSGRRTELLDIAATLFAERGLRATTVRDIADAAGILSGSLYHHFDSKESMVDEILRGFLDDLFGKYREIVASGLDSRATLEALVTTSYEAIDASHSAVAIYQDEVKHLVANERFTYLSELNTEFRELWMGVLEAGVKDGSFRSDIDVELAFRFLRDTAWVAVRWYRPGGSVTVDTVAKQYLSIVLDGLASPHN | soluble

Source: the DeepSol protein solubility set
